Data: patent US5981720A, “Human salivary proteins and fragments thereof having alpha-glucosidase inhibitory activity” (priority 1997, dated 1999)
Residues, ends and D or L forms follow the SMILES beside them. No end group written: not given here. *: point of attachment. NH(β-GlcNAc) = CC(=O)N[C@@H]1[C@@H](O)[C@H](O)[C@@H](CO)O[C@H]1N*; acetylglucosamine = N-acetylglucosamine

Target: yeast alpha-glucosidase (Saccharomyces cerevisiae, UniProt P53341)
Assay type: biochemical
Protocol: The enzyme of alpha-glucosidase activity is according to the procedure as described by Sigma Chemical Company, St. Louis, Mo. Routinely, the enzyme reaction mixture contains 10 mM maltose and 50 ul of purified alpha-glucosidase or 0.02 units of yeast alpha-glucosidase in a final volume of 60 ul of 25 mM sodium acetate buffer, pH 5.6. The reaction mixture is incubated at 37° C. for 60 minutes, and the production of glucose is determined by the glucose oxidase reagent (Worthington Statzyme Glucose 500) in accordance with recommendation of Worthington Biochemical Corporation.

Chain of yeast alpha-glucosidase (P53341 whole entry): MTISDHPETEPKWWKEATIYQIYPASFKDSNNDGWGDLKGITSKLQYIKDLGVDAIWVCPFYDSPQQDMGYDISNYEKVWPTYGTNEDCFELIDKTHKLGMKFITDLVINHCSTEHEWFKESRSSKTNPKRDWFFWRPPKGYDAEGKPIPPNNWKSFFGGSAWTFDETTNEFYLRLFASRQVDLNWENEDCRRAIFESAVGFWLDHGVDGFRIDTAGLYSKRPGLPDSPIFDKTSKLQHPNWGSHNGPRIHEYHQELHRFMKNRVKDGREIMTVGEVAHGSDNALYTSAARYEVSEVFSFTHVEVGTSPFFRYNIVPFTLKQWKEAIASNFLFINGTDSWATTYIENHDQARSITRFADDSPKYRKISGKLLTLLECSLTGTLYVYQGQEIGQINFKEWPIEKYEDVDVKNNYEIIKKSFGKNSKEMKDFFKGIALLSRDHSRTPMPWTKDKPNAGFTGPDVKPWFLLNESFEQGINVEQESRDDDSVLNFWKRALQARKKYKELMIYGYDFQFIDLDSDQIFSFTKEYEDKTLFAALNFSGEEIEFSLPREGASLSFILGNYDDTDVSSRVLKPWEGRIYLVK

Question: Which “inhibitory effect on the alpha-glucosidase activity” value (10 ug of peptide, 50 mM acetate buffer pH 5.6, compared to control) does the source give for `CC(=O)N[C@@H]1[C@@H](O)[C@H](O)[C@@H](CO)O[C@H]1NC(=O)C[C@H](NC(=O)CNC(=O)CN)C(=O)N[C@@H](CCCCN)C(=O)O` [synthetic glycopeptide, Gylcyl-glycl-(NB-2-(acetylamino)-deoxy-2-B-pyranosyl)-asparaginyl-lysine] (H-GGD(NH(β-GlcNAc))K-OH) here?
Answer: about 90%

Question: How did the “inhibitory effect on alpha-glucosidase activity (in words)” value (0.02 units of yeast alpha-glucosidase) turn out when “acetoacetate glycopeptide complex: reaction product of the putative glycopeptide with acetoacetate reagent (GGN(acetylglucosamine)K; also: reacted with acetoacetate reagent (glycine residue))” was run?
Answer: loss of inhibitory effect of the glycopeptide itself but is able to stimulate the alpha-glucosidase activity

Question: “glycine-glycine-asparagine-pyridoxyl-lysine acetylglucosamine” was tested. Which “increase in inhibitory effect on alpha-glucosidase” value (glycopeptide preincubated with pyridoxal 5-phosphate versus unmodified glycopeptide) did it give?
Answer: 50%

Question: “glycopeptide: bioactive fragment from Lys-C digestion of CON-1: glycine-glycine-asparagine-lysine, asparagine glycosylated by acetylglucosamine (GGN(acetylglucosamine)K)” was tested. Which “inhibition of alpha-glucosidase lost after N-acetylglucosaminidase treatment” value (compared to the nontreated glycopeptide) did it give?
Answer: about 20%

Question: What about the “change of inhibitory activity after removal of acetylglucosamine (in words)” value (incubation with N-acetylglucosaminidase) of the same compound?
Answer: marked reduction in inhibitory activity
